# Source: US20150313990A1
# No end group written: not given here.
# Key:
# [1] = target: recombinant soluble CD4 (number of domains not stated), P01730; experiment: SPR; biotinylated pV2α (235 RU) on neutravidin-coated CM3 chip, recombinant soluble CD4 in solution; koff-KD distribution model
# [2] = target: recombinant soluble gp120 (isolate YU2) (HIV-1 isolate YU2), P35961; experiment: SPR; biotinylated pV2α (235 RU) on neutravidin-coated CM3 chip, gp120 YU2 in solution at 2, 4, 8 and 16 nM; koff-KD distribution model
# [3] = target: HIV-1 BaL virions (virion-associated envelope gp120, stock grown in primary CD4+ T cells) (HIV-1 BaL); experiment: cell-based or functional assay
Binder,Kd [1] [µM],koff [1] [s⁻¹],Kd [2] [µM],koff [2] [s⁻¹],IC50 of inhibition of acute infection of primary human CD4+ T cells by HIV-1 BaL [3] [µM]
KVQKEYALFYELDIVPID (not fully specified) [biotinylated peptide pV2α (captured on neutravidin chip or biotin-captured in ELISA)],4000,0.013,0.0009,6.4e-05,
KVQKEYALFYELDIVPID (modifications not checked) [peptide pV2α-Tys (tyrosine-sulfated variant of peptide pV2α)],,,,,15
